Measurements from the supplement of paper PMC9170038.

Columns and labels:
Details in all cases: FMN input: 0 or 200 uM; Eterna round: R93 (includes R88 designs)
[1] = system: MS2 coat protein; test: apparent KD of MS2 coat protein, switch ON state; designed switch direction (-1 OFF switch, 1 ON switch): 1; higher = weaker reporter binding
Method in brief: (§1)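 With or without constant ligand, designed RNA switches in 100 mM Tris-HCl pH 7.5, 80 mM KCl and 4 mM MgCl2 were titrated with SNAP-549-labelled MS2 coat protein. Concentrations went up in twofold steps from 0.7 or 1.5 nM to 3 µM. The switches had been transcribed on-chip from Illumina sequencing clusters, and apparent KD is the per-design median of normalised cluster binding-curve fits.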

[2] = system: MS2 coat protein; test: apparent KD of MS2 coat protein, switch OFF state (with FMN for OFF switches, without FMN for ON switches); designed switch direction (-1 OFF switch, 1 ON switch): 1; higher = weaker reporter binding
Method in brief: as §1

[3] = system: MS2 coat protein; test: apparent KD of MS2 coat protein, switch OFF state (with FMN for OFF switches, without FMN for ON switches); designed switch direction (-1 OFF switch, 1 ON switch): -1; higher = weaker reporter binding
Method in brief: as §1

[4] = system: MS2 coat protein; test: apparent KD of MS2 coat protein, switch ON state; designed switch direction (-1 OFF switch, 1 ON switch): -1; higher = weaker reporter binding
Method in brief: as §1

Sequence | apparent KD of MS2 coat protein [1] [nM] | apparent KD of MS2 coat protein [2] [nM] | apparent KD of MS2 coat protein [3] [nM] | apparent KD of MS2 coat protein [4] [nM]
UCCUUACAUGAGGAUCACCCAUGUCGCAGGAAUCAAGGAUAUGGGUCCGCAAUGCGGAAACCAGAAGGUGACAAAA [Edusquanon] | 165 | 489 | – | –
AAAUAAAGGACUGAGGAUAUACCACAUGAAACAUGAGGAUCACCCAUGUAAUAAUACAAAGGGUGGUAGAAGGUAGUCCACAAACA [so let's mod Hyphema] | 14 | 26.8 | – | –
CAGAGACAUGAGGAUCACCCAUGUAGGAUUAUGGGAGGAUAUACAAAGACGAGAGUCAGAGUAGAAGGCCUAGGAA [salish99-ss1-141] | 21.1 | 57.6 | – | –
AAGAAAGUUUACGAGGAUAUGUUCCGCAGAACAUGAGGAUCACCCAUGUGAACAAGAAAGGCGACGCAGAAGGCGUGAGCUAUGA [Anesdien] | 32.7 | 106 | – | –
AAGAAACAUGAGGAUCACCCAUGUGAGAAUAACACAGGAUAUGCGAAAAGAAACAAAGAAGCAGAAGGGUGAAGAA [Mat - Same State 1 - Tesla mod - 54] | 20 | 40.3 | – | –
AGAAGACAUGAGGAUCACCCAUGUGGGAAUAUGGGAGGAUAUACAAAGACGAGAGUCAGAGUAGAAGGCCUAGGAU [salish99-SS1-092] | 37.3 | 118 | – | –
CGGAGACAUGAGGAUCACCCAUGUGAGAAGAGGCGAGGAUAUGGAAAUAAAGAAGAGAAAUGAGAAGGCGCGAGCC [salish99-SS1-082] | 40.6 | 36.3 | – | –
AGAAAUAAAAGAGAGGAUAUCCAAAAGAAAACAUGAGGAUCACCCAUGUAAAAGAAAAUAAAAUGGGAGAAGGCUCAUGAUAAAG [JL In the Red Helter Skelter 2 mod 1] | 42 | 35.8 | – | –
AACAAUCUAUCUGAGGAUAUCAUGUAAAAAACAUGAGGAUCACCCAUGUGCAGGAAAACUGCAUAUGAGAAGGCAGAUAGAUUGA [SS2 :P - 600] | 98.1 | 192 | – | –
AACAAUCUAUCUGAGGAUAUCAUGUCAAAGACAUGAGGAUCACCCAUGUCGCAGGAAACUGCUCAUGAGAAGGCAGAUAGAUUGA [SS2: 1128] | 11.2 | 17.2 | – | –
AACAUACAUGAGGAUCACCCAUGUUCCGGCAGGUCAGGAUAUUCAUCGAAAGUGUUAUAAGAAGAAGGGACAUAAA [JR_SS001_Sub011] | 34 | 48.9 | – | –
AACAAUCUAUCUGAGGAUAUCAUGUCAAAGACAUGAGGAUCACCCAUGUCCAGGAAAACUGGAUAUGAGAAGGCAGAUAGAUUGA [SS2: 1105] | 179 | 3310 | – | –
AAAAAACAUGAGGAUCACCCAUGUAAAAAAAACACAGGAUAUCCCUUUUUUAAAUGAAAAGGAGAAGGGUGAAAAA [Nob's Hobby 9 - Jieux - Same State 1] | 22.6 | 24 | – | –
AGAAAACAUGAGGAUCACCCAUGUAGGAAUAUGGGAGGAUAUACAAAGACGAAAGUCAGAGUAGAAGGCCUAGGAA [salish99-SS1-089] | 20.7 | 71.5 | – | –
AUAAAAGAAGCGAAGGAUAUCCAAAACUCAACAUGAGGAUCACCCAUGUAAAGAAAGAAAAAAUGGGAGAAGGUCGCAAAGAAUA [73%, More Fisker Same State 2, D3, 10] | 11.8 | 26.7 | – | –
AGGAAACAUGAGGAUCACCCAUGUAAAAAUAUGGGAGGAUAUACAAACAGGAAAGAGAGAGUAGAAGGCCUAAAAG [Garnet 20] | 72.9 | 41.8 | – | –
GGUACAUCUAGUUAGGAUAUCAGGUGUAAGACAUGAGGAUCACCCAUGUCCUAAGAACAGGUAACUGAGAAGGAACAGGGAGUCC [JR_SS002_Sub416] | 64.6 | 133 | – | –
AACAAUCUAUCUGAGGAUAUAUGUCGAAAGACAUGAGGAUCACCCAUGUGAAAACAUGAAAAAUAAUAGAAGGCAGAUAGAUUGA [SS2: 1141] | 80.5 | 413 | – | –
GGGACCAGCGUCAAGGAUAUUCAUAUAUAAACAUGAGGAUCACCCAUGUAGGCCAGGAGGCCUUGGGAGAAGGUGAGUUGGCUCG [Xegedibe] | 40.5 | 249 | – | –

Sequence | apparent KD of MS2 coat protein [1] [nM] | apparent KD of MS2 coat protein [2] [nM] | apparent KD of MS2 coat protein [3] [nM] | apparent KD of MS2 coat protein [4] [nM]
AAAAAACAUGAGGAUCACCCAUGUAAAAAUAUGGGAGGAUAUGGAAACACGAAAGUGAAACCAGAAGGCUCAAAAG [77%, Mat - Mod of Eli, 17] | 21.2 | 78.4 | – | –
AUAAAGAAAAGGCAGGAUAUGUAAACUAAAACAUGAGGAUCACCCAUGUGGGAAAUAAAAUAAAAACAGAAGGGCCAAAAGAAUA [Designing denovo 17] | 19.1 | 32.8 | – | –
AGAAAUAAACCGAAGGAUAUCUAAACCUAAACAUGAGGAUCACCCAUGUAAAAGAAAAUAAAAUGGGAGAAGGUCGGAAAUAAGA [Designing denovo 12] | 17.5 | 29.9 | – | –
UGAAGACAUGAGGAUCACCCAUGUGGGAUUAUGGGAGGAUAUACAAAGACGAGAGUCAGAGUAGAAGGCCUAGGAG [salish99-ss1-118(!)] | 39.5 | 67.9 | – | –
AACAAUCUAUCUGAGGAUAUCAUGUAAAAAACAUGAGGAUCACCCAUGUCUAGGAAAACUAGAUAUGAGAAGGCAGAUAGAUUGA [SS1 - 596] | 110 | 86.1 | – | –
AAAACACAUGAGGAUCACCCAUGUAAAAACAUGAGAGGAUAUGCAUAGAAAAAAAACUAUGCAGAAGGCUCAUGUG [SS1 - 5] | 20 | 29.1 | – | –
GAAAAACAUGAGGAUCACCCAUGUAGAAAUAUGGGAGGAUAUACAAAGACGAAAGUCAAAGUAGAAGGCCUGAAAG [77%, Mat - Mod of Eli, 1] | 27.1 | 136 | – | –
GUAUAUAUAAGACAGGAUAUCCUAAAGUAAACAUGAGGAUCACCCAUGUAAAGAAAGAAACUCAUGGAGAAGGGUCAAUAUAUAC [Mat - Same State 2 - Tesla mod - D82] | 11.5 | 27.1 | – | –
GAAAAACAUGAGGAUCACCCAUGUAAAAAUAUGGGAGGAUAUUGAAAGACGAAAGUCAAACAAGAAGGCCUAAAAG [Garnet 2] | 22.2 | 119 | – | –
UAAAAACAUGAGGAUCACCCAUGUGAGAACAUGGGAGGAUAUACGAAGACGAAAGUCGAAGUAGAAGGCCUAAAAU [Mat - Same State 1 - Mod - D172] | 145 | 39.3 | – | –
GAACCACAUGAGGAUCACCCAUGUCAAAGAAAUCAAGGAUAUGCACAAAAGGAAAUAACUGCAGAAGGUGAACGAA [62%, Redo, 1] | 22.6 | 40.9 | – | –
AGAAUAAAAACAGAGGAUAUCCAAAAGAAAACAUGAGGAUCACCCAUGUAAAAGAAAAUAAAAUGGGAGAAGGCUGAAAAAAAGA [Mat - Same State 2 - Eli mod - D98] | 25 | 39.3 | – | –
AAAAAACAUGAGGAUCACCCAUGUAGAAACAUGGGAGGAUAUACAAAGACGAAAGUCAAAGUAGAAGGCCUAAAAA [Mat - Same State 1 - Mod - D157] | 77.7 | 33.5 | – | –
AUAAUAUUAAGCAAGGAUAUACUAAAGUAAACAUGAGGAUCACCCAUGUAAAAAAAAAAACUCAUGUAGAAGGUGCAUAAAUAAA [moonwalk 10] | 8.92 | 33.1 | – | –
AAGAAACAUGAGGAUCACCCAUGUAAAUUUAAGAGAGGAUAUCGUACAUGGAAGAUUUAACGAGAAGGCUCUAGAA [Pariah 2 (MS2 Riboswitches - Same State 1)] | – | 36.9 | – | –
CAAAAACAUGAGGAUCACCCAUGUGAGGAUAUACGAAAGUAGAAGGCACUAAAACAAAACAGAAGGACAAAACA [Meechl Ex1 R2 m3] | – | – | 24.6 | 17.9
AAACAGGGAGGAUAUACACCAUACAAACCUCUAAACAAAAGACAUGAGGAUCACCCAUGUAGAAGGCCCAACAA [Default title] | – | – | 103 | 57.5
UAUAGACAUGAGGAUCACCCAUGUGAGGAUAUCAGUGACUACAGGACAUCACGUACAAUGAGAAGGCACAGAAA [JR_Exc001_Sub015] | – | – | 45.2 | 34.7
